First the molecules themselves.
B2: GEMININ (human, full-length, MBP tag removed) (natural protein, UniProt O75496 1-209, looked up)
chain: MNPSMKQKQEEIKENIKNSSVPRRTLKMIQPSASGSLVGRENELSAGLSKRKHRNDHLTSTTSSPGVIVPESSENKNLGGVTQESFDLMIKENPSSQYWKEVAEKRRKALYEALKENEKLHKEIEQKDNEIARLKKENKELAEVAEHVQYMAELIERLNGEPLDNFESLDNQEFDSEEETVEDSLVEDSEIGTCAEGTVSSSTDAKPCI
notes: The His6 tag lies with MBP at the N-terminus, before the TEV site of pETMBP_1, so it was probably removed with MBP; also called GMNN; source: E. coli BL21Star (DE3), purified (Ni-NTA HisTrap HP, TEV digestion, size exclusion); not shown: MBP, N-terminal, cleaved

Common to all, as to details: both partners purified
Assay [1] has as its target B2. Kind of assay: SPR; Biacore T200, GEMININ (1370 RU) immobilised by amine coupling on a CM5 chip; MBP fusions or MBP alone as analyte; 25 °C; PBS-TCEP (3.5 mM TCEP) with 350 mM NaCl (results: 437 mM NaCl); 30 μl/min; apparent KD from a steady-state fit.
Assay [2] has as its target T1, MBP-fused full-length SIX3 (SIX3 without aa 1-78) (human, UniProt O95343 79-332).
T1 construct: SIX3, human, without the N-terminal homopolymeric region (aa 1-78, GenBank AF049339); A TEV site lies between the tags and SIX3; also called MBPSIX3; source: E. coli BL21Star (DE3), purified (Ni-NTA HisTrap HP, size exclusion); not shown: MBP, N-terminal, kept
T1 sequence (looked up): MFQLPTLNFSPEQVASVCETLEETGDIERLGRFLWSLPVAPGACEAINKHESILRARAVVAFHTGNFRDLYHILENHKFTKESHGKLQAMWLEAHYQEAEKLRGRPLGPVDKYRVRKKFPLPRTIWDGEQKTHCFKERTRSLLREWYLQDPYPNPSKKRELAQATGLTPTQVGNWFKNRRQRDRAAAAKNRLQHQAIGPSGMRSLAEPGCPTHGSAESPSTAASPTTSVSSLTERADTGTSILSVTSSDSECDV
Described as above.

In assay [3] the target is T1, MBP-fused full-length SIX3 (SIX3 …). Kind of assay: ITC; Nano ITC LV, 25 °C, PBS-TCEP with 300 mM NaCl (results: 437 mM NaCl); 200 μM GEMININ (or its coiled-coil region) in the syringe, 10 μM MBPSIX3 (or MBP alone) in the cell; independent binding sites model; GEMININ-to-MBP control subtracted.

“And” between values parts separate entries of the source, which are not always exact repeats. Identical values can stand only once.

B1: MBP-fused SIX domain of SIX3 (domain or fragment)
chain: MFQLPTLNFSPEQVASVCETLEETGDIERLGRFLWSLPVAPGACEAINKHESILRARAVVAFHTGNFRDLYHILENHKFTKESHGKLQAMWLEAHYQEAEKLRGRPLGPVDKYRVRKKFPLPRTIWD
modifications: Assayed as an N-terminal His6-MBP fusion (left out). Start follows the printed deletion of aa 1-78; end is derived from the stop-codon primer (T-I-W-D-stop), just before the homeobox at 206.
Consider B1, for which the Kd in assay [1] is 19.5 µM and 19.6 µM.

In the case of B2, the Kd in assay [2] worked out at 3.19 µM. In assay [3], the Kd is 3.4 µM and 3.41 µM; the dH is -75.8 kcal/mol; the “stoichiometry N” value is 0.55.

A word on the stoichiometry N: it is the number of molecules, sites or subunits per partner or assembly.

Values taken from PMC6895700, “SIX3 and SIX6 interact with GEMININ via C-terminal regions” (Biochemistry and Biophysics Reports, 2019).
